# B1: Disintegrin and metalloproteinase domain-containing protein 22 (Homo sapiens), Q9P0K1-1 (parent)
# chain: MQAAVAVSVPFLLLCVLGTCPPARCGQAGDASLMELEKRKENRFVERQSIVPLRLIYRSGGEDESRHDALDTRVRGDLGGPQLTHVDQASFQVDAFGTSFILDVVLNHDLLSSEYIERHIEHGGKTVEVKGGEHCYYQGHIRGNPDSFVALSTCHGLHGMFYDGNHTYLIEPEENDTTQEDFHFHSVYKSRLFEFSLDDLPSEFQQVNITPSKFILKPRPKRSKRQLRRYPRNVEEETKYIELMIVNDHLMFKKHRLSVVHTNTYAKSVVNMADLIYKDQLKTRIVLVAMETWATDNKFAISENPLITLREFMKYRRDFIKEKSDAVHLFSGSQFESSRSGAAYIGGICSLLKGGGVNEFGKTDLMAVTLAQSLAHNIGIISDKRKLASGECKCEDTWSGCIMGDTGYYLPKKFTQCNIEEYHDFLNSGGGACLFNKPSKLLDPPECGNGFIETGEECDCGTPAECVLEGAECCKKCTLTQDSQCSDGLCCKKCKFQPMGTVCREAVNDCDIRETCSGNSSQCAPNIHKMDGYSCDGVQGICFGGRCKTRDRQCKYIWGQKVTASDKYCYEKLNIEGTEKGNCGKDKDTWIQCNKRDVLCGYLLCTNIGNIPRLGELDGEITSTLVVQQGRTLNCSGGHVKLEEDVDLGYVEDGTPCGPQMMCLEHRCLPVASFNFSTCLSSKEGTICSGNGVCSNELKCVCNRHWIGSDCNTYFPHNDDAKTGITLSGNGVAGTNIIIGIIAGTILVLALILGITAWGYKNYREQRQLPQGDYVKKPGDGDSFYSDIPPGVSTNSASSSKKRSNGLSHSWSERIPDTKHISDICENGRPRSNSWQGNLGGNKKKIRGKRFRPRSNSTETLSPAKSPSSSTGSIASSRKYPYPMPPLPDEDKKVNRQSARLWETSI
# B2: Disintegrin and metalloproteinase domain-containing protein 22 (Homo sapiens), Q9P0K1-1 (parent)
# chain: B1 chain
# partner: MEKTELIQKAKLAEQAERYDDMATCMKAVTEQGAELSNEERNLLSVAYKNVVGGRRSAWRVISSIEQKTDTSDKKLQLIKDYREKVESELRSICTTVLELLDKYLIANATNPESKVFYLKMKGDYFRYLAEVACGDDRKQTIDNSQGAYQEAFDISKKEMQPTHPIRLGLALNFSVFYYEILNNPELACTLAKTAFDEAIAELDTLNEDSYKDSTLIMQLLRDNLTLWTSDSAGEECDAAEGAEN
# B3: Disintegrin and metalloproteinase domain-containing protein 22 (Homo sapiens), Q9P0K1-3 (parent)
# chain: MQAAVAVSVPFLLLCVLGTCPPARCGQAGDASLMELEKRKENRFVERQSIVPLRLIYRSGGEDESRHDALDTRVRGDLGGPQLTHVDQASFQVDAFGTSFILDVVLNHDLLSSEYIERHIEHGGKTVEVKGGEHCYYQGHIRGNPDSFVALSTCHGLHGMFYDGNHTYLIEPEENDTTQEDFHFHSVYKSRLFEFSLDDLPSEFQQVNITPSKFILKPRPKRSKRQLRRYPRNVEEETKYIELMIVNDHLMFKKHRLSVVHTNTYAKSVVNMADLIYKDQLKTRIVLVAMETWATDNKFAISENPLITLREFMKYRRDFIKEKSDAVHLFSGSQFESSRSGAAYIGGICSLLKGGGVNEFGKTDLMAVTLAQSLAHNIGIISDKRKLASGECKCEDTWSGCIMGDTGYYLPKKFTQCNIEEYHDFLNSGGGACLFNKPSKLLDPPECGNGFIETGEECDCGTPAECVLEGAECCKKCTLTQDSQCSDGLCCKKCKFQPMGTVCREAVNDCDIRETCSGNSSQCAPNIHKMDGYSCDGVQGICFGGRCKTRDRQCKYIWGQKVTASDKYCYEKLNIEGTEKGNCGKDKDTWIQCNKRDVLCGYLLCTNIGNIPRLGELDGEITSTLVVQQGRTLNCSGGHVKLEEDVDLGYVEDGTPCGPQMMCLEHRCLPVASFNFSTCLSSKEGTICSGNGVCSNELKCVCNRHWIGSDCNTYFPHNDDAKTGITLSGNGVAGTNIIIGIIAGTILVLALILGITAWGYKNYREQRQLPQGDYVKKPGDGDSFYSDIPPGVSTNSASSSKKRSNGLSHSWSERIPDTKHISDICENGRPRSNSWQGNLGGNKKKIRGKRFRPRSNSTE
# Variants of: B1
# Conditions: with 1433z_human YWHAZ
row,Variant,effect of a mutation on the interaction
1,R831Q;S832G;R854Q;S855A,disrupting interaction

# Variants of: B1
# Conditions: with 1433b_human YWHAB
row,Variant,effect of a mutation on the interaction
1,R831Q;S832G;R854Q;S855A,disrupting interaction

# Variants of: B2
# Conditions: with 1433t_human YWHAQ
row,Variant,effect of a mutation on the interaction
1,R831Q;S832G;R854Q;S855A,disrupting interaction

# Variants of: B3
# Conditions: with 1433b_human YWHAB
row,Variant,effect of a mutation on the interaction
1,R831Q;S832G,decreasing interaction
2,R831Q;S832G;R854Q;S855A,disrupting interaction
3,R854Q;S855A,decreasing interaction

# Variants of: B3
# Conditions: with 1433z_human YWHAZ
row,Variant,effect of a mutation on the interaction
1,R831Q;S832G,decreasing interaction
2,R831Q;S832G;R854Q;S855A,disrupting interaction

# — IntAct's records for PubMed 16868027
